Experimental data reported in patent US20040053276A1 (published 2004).
[ ]: non-standard residue; d: D form. pGlu = O=C1CC[C@@H](C(=O)O)N1

B1: human DRL90h-FLAG fusion protein, 7.1 kDa molecule cleaved at the furin cleavage site (other)
chain: [pGlu]DRPSKPGFPDEPMREYMHHLLALEHRAEEQFLEHWLNPHCKPHCDRNRIHPVVDYKDDDDK
modifications: also: a pair of intramolecular disulfide bonds
notes: C-terminal processing product of the COS-7 DRL90h-FLAG fusion; The FLAG tail is inferred from detection and purification with anti-FLAG antibody; also called major component of the human DRL90 gene product
B2: human DRL90h-FLAG fusion protein, 9.2 kDa molecule not cleaved at the furin cleavage site (other)
chain: SPILTEKQAKQLLRSRRQDRPSKPGFPDEPMREYMHHLLALEHRAEEQFLEHWLNPHCKPHCDRNRIHPVVDYKDDDDK
notes: Expressed in COS-7 cells from pDRL90h-FLAG; It was detected on Western blots after SDS-PAGE; also called human DRL90-FLAG fusion protein

How the values were obtained:
[1] = target: the molecule itself; assay: non-reducing versus reducing SDS-PAGE and anti-FLAG Western blot; disulfide-linked dimer of the cleaved form
Experimental: (§1) Transfection was carried out using 1 µg/well of the pDRL90h-FLAG DNA constructed in Example 3 and Effectene (Qiagen). Twenty-four hours after the transfection, the medium was replaced with serum-free DMEM medium supplemented with 1 ml of 0.1 mM pABSF (Wako Purechemical Industries) and 0.05% CHAPS (Dojin Chemical). Then, the cells were cultured further for 48 hr. The culture supernatant was transferred into Eppendorf sample tubes and centrifuged. After removal of floating cells, the supernatant was concentrated to about 1/10 in volume with Centricon YM-3 ultrafiltration membrane (Millipore). An equal volume of Tricine SDS-PAGE sample buffer (TEFCO) was added to the resultant concentrated culture supernatant. With respect to the cells, they were washed in 1 ml of PBS (Gibco BRL) twice and then 500 l of Tricine SDS-PAGE sample buffer was added thereto. […] After blocking the nitrocellulose filter with PBS containing 0.1% Tween 20 and 50% Block Ace (Snow Brand Milk Products), human DRL90-FLAG fusion protein was detected with antibodies. […] For luminescence, ECL Western Blotting Kit (Amersham Pharmacia Biotech) was used. Chemiluminescence was detected with Hyperfilm ECL (Amersham Pharmacia Biotech). […] The fusion protein in cell fractions was detected as a polypeptide of approx. 9.2 kDa under reducing conditions and as a polypeptide of approx. 21 kDa under non-reducing conditions.

[2] = target: the molecule itself; assay: non-reducing versus reducing SDS-PAGE and anti-FLAG Western blot; disulfide-linked dimer (approx. 21 kDa)
Experimental: as §1

[3] = target: B1; assay: non-reducing versus reducing SDS-PAGE and anti-FLAG Western blot; disulfide-linked dimer of the uncleaved and cleaved forms
Experimental: as §1

| binding result [3] | Binder | binding result [1] | binding result [2] |
| --- | --- | --- | --- |
|  | B1 | binds |  |
| binds | B2 |  | binds |
